Data reported in the DeepSol protein solubility set.

Test: soluble on expression in E. coli; label from the status in PepcDB or PDB records

Sequence	soluble on expression in E. coli
MTFLRYAIYFLPPASEAWAGFGASWLGWDVETGQELAHPAETGLDVAALTATPRKYGLHATMKPPFRLAEGQDVDALRRACATLAASRPAVTLDGLEIARLGRFLALRPVGELGALNALAAACVTELDPFRAPATPQELVRRRAARLSPEQDAHLLSWGYPYVLDQFRFHITLTGRLDDDMLMQAQTLLQRRLGPLLPVPFTLADLALVGEAGDGRFHLIHRYALSR	not soluble
MREPIVAIATPYGESAIGIVRLSGKGVLDLVKKFFKTKREIKPRYAHFGVLYDDKGEELDEGVLIYYKAPHSYTGEDMVELNLHGNPRILKRALELFVNAGARLAEPGEFTKRAFLNGKLDLTQAEAVAELISAKTELARKVALKQLHGELSKHIRPLRETLLELLAYVEADIEFAEEDIPTLTKEQVIQMVDKVIEGINELLKTAKTGKFIREGVKLAIVGRPNVGKSSLFNALLKEERAIVTDIAGTTRDFIEETLQIKGVPVRLVDTAGIRETKDLVERIGVERSKQKVKEADLILFVIDASQEITEEDLRIYEEIKEKDHIVVANKVDLGIRANLEKFKGEKIVKVSALKGTGLEELSEEILKKVGANLEESVNIYISVRHETLLKKAKEVLERFKEEFREKDISPEIAMLDLREASDYLGEILGEITTEDLLGKIFSTFCIGK	soluble
MEQLRGLYPPLAAYDSGWLDTGDGHRIYWELSGNPNGKPAVFIHGGPGGGISPHHRQLFDPERYKVLLFDQRGCGRSRPHASLDNNTTWHLVADIERLREMAGVEQWLVFGGSWGSTLALAYAQTHPERVSEMVLRGIFTLRKQRLHWYYQDGASRFFPEKWERVLSILSDDERKDVIAAYRQRLTSADPQVQLEAAKLWSVWEGETVTLLPSRESASFGEDDFALAFARIENHYFTHLGFLESDDQLLRNVPLIRHIPAVIVHGRYDMACQVQNAWDLAKAWPEAELHIVEGAGHSYDEPGILHQLMIATDRFAGK	soluble
MGSDKIHHHHHHMTTLSDVAKEANVSKMTVSRVINHPEQVTPELRAMVEKAMEKLNYHPNSIAQALVNNRSNVVKFVTLEDIDTTEPYYTNLLFGFARGLNAKQYALQLVVDPTRIEKGRADGYLITGARNEDYDMFDKLDKPFVLFGENHRGYDFVDTDNQTAEKMATQYALDRLYKHIIFIGIDIKEPFEYSREAGYINTLQQHRLIPQIYRVSNHSHAAQKVIHEHFKEFKKDTCFICASDRIAVGVVRQLQDERARIPEDFGVIGFDGVFLDQVSNPKLTTIKQPIFEMGKMLAKMLLQKIDQSGSPQGELMVKPQLIRRETTR	not soluble
MGHHHHHHGGHMSLNTISSLETTDLPAAYHIEQRAHAFPWSEKTFASNQGERYLNFQLTQNGKMAAFAITQVVLDEATLFNIAVDPDYQRQGLGRALLEHLIDELEKRGVATLWLEVRASNAAAIALYESLGFNEATIRRNYYPTTDGREDAIIMALPISMEGGS	soluble
MGSDKIHHHHHHCSTEVTEYRQQQPALDIFHYFQGRTEAWGMVQDRSGKQLRRFHVEIDGDVVGDTLTLHERFVYDDGEKQQRIWRIRRTGDNRYQGTAGDIEGVASGQAAGNAFHWRYSMNVEASGSRWLLHFDDWMFLQDGSHLFNKTEMKKFGITVATVTLFFTRTTAEERTAP	not soluble
MTYGVISWWDYGHWIEAVAHRMPIANPFQAGIGNKYNNVPGASSFFTAENESYAEFVAEKLNVKYVVSDIEMETGKYYAMAVWAEGDLPLAEKYYGGYFYYSPTGTFGYANSQWDIPLNSIIIPLRIPSELYYSTMEAKLHLFDGSGLSHYRMIYESDYPAEWKSYSSQVNLNNESQVLQTALYEAVMRARYGVSPTLEHHHHHH	not soluble
MGSDKIHHHHHHMSLKKQIPIIFENTHYFIVNKPPGIPSQPPDCRTWGRTHPNLDPTPLLERFKAIYYSHREVELCRTVHRLDHCVTGGMLIAKTKDGSVKFSRFLQKGGNNGYKLQRKYVAIVESSGRFNKPNNYEIKYGPKYNFLISHGGREITKFKEVDENCIVLQLVTGKKHQIRNHVSQILNQPILNDKRHGSTVNFPELFNDQIALHSACIITKIGLQTKTHLIPMEHNNTGQLWSRKYVNEEGEFTLPIKEVLLENWDQ	not soluble
MGFLKILRKQRAREREMRILILGLDNAGKTTLMKKFLDEPTDTIEPTLGFDIKTVHFKDFQLNLWDVGGQKSLRSYWKNYFESTDALIWVVDSSDRERLLQCSEELKKLLGEERLAGASLLVLANKSDLPGAIDVNSIAQVLDLHSIKSHHWKIFSCCALSGDRLVQAMTWLCDDVGSRLFILD	not soluble
GAHMAGGRSWCLRRVGMSAGWLLLEDGCEVTVGRGFGVTYQLVSKICPLMISRNHCVLKQNPEGQWTIMDNKSLNGVWLNRARLEPLRVYSIHQGDYIQLGVPLENKENAEYEYEVTEEDWETIYPCLSPKNDQMIEK	soluble
MTEFFSQKQIDEIRECFNFYSTSGVLRTDSQLRCALRSLGYSPTASKTDIYFKKLNKKPIEFATFLDICKDEQNSPNPLTEIIKALSGLDRNKTRAMPSRELAAILSHVGEQMSPEEIKYLLSKVEVNGMVPHQALIEYISK	not soluble
MGHHHHHHGGHMSLTDVNVKIDIMHPQPIVGLGNPAIFVQGSTQNYKEYTSLETLAKDFATTTTVYKKAEIIWKQENKPQTIAVVTFVADTPTSPEQPDSLIAGSGIIAAATSYFYNDWHFALLANFVEADALALSNLIEENEFKFLVIQTATVDELTVFTGNNLTIGLVHPLEEFLDAALIGNTASLTVGSVTWKFRHNLVGITPNTLTTSQLQAIEKANAIAYVSKAGIPQTSEGKTMSGEFIDALHGDHWVKSNIETNVQRLLSTTDKLTFDSNGIALLDTTVANVLETAFNNGIVDIVDETGVGNYSVTALGRQDLNPDDIAARNYKGLSFKYKRSGAIHTVDVTGTIEVEGGS	soluble
KSKKAVWHKLLSKQRRRAVVACFRMTPLYN	soluble
MSLKFVGLVGSNYDQSYNRKLLEFIRRYFKLKFELEVLEIDEVPMFNQDEKWDESFQLRYLYNKITRADGVIIATPEHNHTISASLKSVLEWLSYEVHPFENKPVMIVGASYYDQGTSRAQVHLRKILDAPGVNAYTLPGNEFLLGKAKEAFDNNGNITNEGTVKFLETCLDNFVKYVGVVSKLKKPKPIESEDLDCGKPIATTITEVDPDDPEWVEKVAAFTGAVSGDTYVKLDHGILTVNQIDMFLKAMPFELTYADDNNQFLYYNNAHQDPDTMFAKRVPPQSGSRMSTVHGSLPPARMKNVEWVIGTLRNGNQEYVRTIVPGSPAGVINTHNYQAMYYPDGSYAGINEIVFNFQPWLDWYLKETGQRLVGGSGPFAPAAGGHGDADATSGASDSGDAGGHGGDADATAGASYEGHHHHHH	soluble
CIIDKVTAVRRLNVLTLNVHKGFTFFNRRFILPELREAVRATGADLVFLQEVHGSHQQHALRHPAWPETPQYEFLADSMWPQFAYGRNAVYPHGDHGNALLSKFPIRRFNNLDVSVQGNEQRGLLHCQLEVPGHDEVHAVCVHLGLREAHRQRQVKLMLDLLASLPPNAPVIIAGDFNDWRLKADAVLSEHLTEAFGTPARSFPARLPLLRLDRIYLRNAVPGAAQVLSKYPWSHLSDHVPLAAEINL	not soluble
MKNIRNFSIIAHIDHGKSTLSDRIIQICGGLSDREMEAQVLDSMDLERERGITIKAQSVTLDYKASDGETYQLNFIDTPGHVDFSYEVSRSLAACEGALLVVDAGQGVEAQTLANCYTAMEMDLEVVPVLNKIDLPAADPERVAEEIEDIVGIDATDAVRCSAKTGVGVQDVLERLVRDIPPPEGDPEGPLQALIIDSWFDNYLGVVSLIRIKNGTLRKGDKVKVMSTGQTYNADRLGIFTPKQVDRTELKCGEVGWLVCAIKDIHGAPVGDTLTLARNPAEKALPGFKKVKPQVYAGLFPVSSDDYEAFRDALGKLSLNDASLFYEPESSSALGFGFRCGFLGLLHMEIIQERLEREYDLDLITTAPTVVYEVETTSREVIYVDSPSKLPAVNNIYELREPIAECHMLLPQAYLGNVITLCVEKRGVQTNMVYHGNQVALTYEIPMAEVVLDFFDRLKSTSRGYASLDYNFKRFQASDMVRVDVLINGERVDALALITHRDNSQNRGRELVEKMKDLIPRQQFDIAIQAAIGTHIIARSTVKQLRKNVLAKCYGGDISRKKKLLQKQKEGKKRMKQIGNVELPQEAFLAILHVGKDNK	soluble
MSDDPIAASQAVVLSQAQAQNSQYALARTFATQKVSLEESVLSQVTTAIQTAQEKIVYAGNGTLSDDDRASLATDLQGIRDQLMNLANSTDGNGRYIFAGYKTEAAPFDQATGGYHGGEKSVTQQVDSARTMVIGHTGAQIFNSITSNAVPEPDGSDSEKNLFVMLDTAIAALKTPVEGNNVEKEKAAAAIDKTNRGLKNSLNNVLTVRAELGTQLSELSTLDSLGSDRALGQKLQMSNLVDVDWNSV	soluble
EANLKPENVEIHIIDDNFFLKWNSSSESVKNVTFSADYQILGTDNWKKLSGCQHITSTKCNFSSVELENVFEKIELRIRAEEGNNTSTWYEVEPFVPFLEAQIGPPDVHLEAEDKAIILSISPPGTKDSIMWAMDRSSFRYSVVIWKNSSSLEERTETVYPEDKIYKLSPEITYCLKVKAELRLQSRVGCYSPVYCINTTERHKVPSPENIQINADNQIYVLKWDYPYENATFQAQWLRAFFKKIPGNHSDKWKQIPNCENVTSTHCVFPREVSSRGIYYVRVRASNGNGTSFWSEEKEFNTEMKTIIFPPVISVKSVTDDSLHVSVGASEESENMSVNQLYPLIYEVIFWENTSNAERKVLEKRTNFIFPDLKPLTVYCVKARALIENDRRNKGSSVSDTVCEKTKPGNTSK	not soluble
SLDITLVFPHQLFADHPAIQAGRTVALIEDPLLFGTDPQWPLRMHHQRRLLHRASMTVYAEQLRGRGFNVIHQRHDAAPDTQGHLQLLHSAGYRHVHLVDLVDHWLERRLNAFAESVALRVSVLPTPMLLTPADVLEKHFGTGKKPLMAKFYEMQRTRLGVLMDAEGRPVGGRWSFDADNRKKLPKDISVPPIPVATPSTVVNTSRQQLAQENLPGVGKLDGFYYP	soluble
MSTLLAILFLLPFYTFSLNKKPEEVLKGLYPSAEIEVEDIILTEEQVKEVEKLSGTKLNTRFVTFYIVKKDGKVLAYGYVDIHRVRTKPEAVLYVISPKGKIELIEVLAFHEPLEYLPPKNWLKLFEGKDINAPLRVKKDIPNVTGATLTARAITKNAKKVLALWQVLFGGKE	not soluble
MADYKVKDISLAEWGRKAIELAENEMPGLMELRREYGPSQPLKGAKIAGCLHMTVQTAVLIETLKALGAELRWSSCNIFSTQDNAAAAIAKTGVPVFAWKGETDEEYEWCIAQTVKGFSGDGLPNMILDDGGDLTNLVIDRYPELVPKIFGISEETTTGVKNLYKRLSKGNLPISAINVNDSVTKSKFDNLYGCRESLVDGIKRATDVMIAGKTCCVCGYGDVGKGCAAALRAFGARVVVTEVDPINALQASMEGYQVALVEDVMADAHIFVTTTGNDDIITSDHFPHMRDDAIVCNIGHFDTEIQVGWLEANAKEHVEIKPQVDRYTMENGRHIILLAKGRLVNLGCASGHPSFVMSNSFTNQVLAQIELWSNRDNGKYPRGDKAGVFFLPKALDEKVAALHLAHVGAKLTKLTPKQAEYINCPVNGPFKPDHYRY	soluble
MEGMDPLAVLAESRLLPLLTVRGGEDLLGLARVLEEEGVGALEITLRTEKGLEALKALRKSGLLLGAGTVRSPKEAEAALEAGAAFLVSPGLLEEVAALAQARGVPYLPGVLTPTEVERALALGLSALKFFPAEPFQGVRVLRAYAEVFPEVRFLPTGGIKEEHLPHYAALPNLLAVGGSWLLQGNLEAVRAKVRAAKALLSPQAPG	soluble
